Experimental data published in article PMC10349951.
Where “and” joins values, the source holds several entries; their conditions need not be identical. Identical values can stand only once.

Target: Recombinant Halo-tagged Synaptophysin labeled with Alexa488 (mouse) (UniProt Q62277)
Assay: single-molecule TIRF step photobleaching

With “Recombinant Halo-tagged Synaptophysin labeled with Alexa488 (from UniProt Q62277 1-314) (natural protein)” the stoichiometry N was 3 copies and 5 copies.
